Laboratory results taken from patent US20230105209A1 (ACADEMIA SINICA, published 2023).

Molecular target: SARS-CoV-2 spike S2 (SARS-CoV-2, UniProt P0DTC2 686-1213)
Assay: ELISA

B1: m31A7 monoclonal antibody (chimeric IgG1) (antibody, V domains shown)
VH: EVQLQQSGPEMVKPGASVKISCKTSGYTFTEYTIYWVKQSHGKSLEWLGGINPNIGDTTYNQKFKGKATLTVDTSSSTAYMELRSLTSEDSAVYYCAREVYNYSFAYWGQGTLVTVSA
VL: DIVMSQSPSSLAVSVGEKVTMSCKSSQSLLYSSNQKNYLAWYQQKLGQTPKLLIYWASSRESGVPDRFTGSGSGTDFTLTISSVRAEDLAVYYCQQYYRYPLTFGVGTKLELKR
notes: also called m31A7 mAb; m31A7 IgG
Question: Does B1 bind?
Answer: no binding
